Earlier results as cited in publication PMC9161494.

Molecular target: EGFR (Homo sapiens) (UniProt P00533)

Kd: 17.7 nM
Substance: PEPDG278D (from UniProt P12955)
